Data on seven molecules can be found in patent US20150119341A1 (PALATIN TECHNOLOGIES, published 2015).

The target in test [1] is T1, recombinant human melanocortin-4 receptor (hMCR-4) in membrane homogenates of HEK-293 cells (human, UniProt P32245 1-332).
T1 construct: whole, on cells; Used as membrane homogenates, not intact cells; also called MC-4
As to the kind of experiment: competitive inhibition of [I125]-NDP-alpha-MSH, hMCR-4 HEK-293 membranes. On the procedure: (§1) A competitive inhibition binding assay was performed using membrane homogenates prepared from HEK-293 cells that express recombinant hMCR-la or hMCR-4 (in each instance where the h prefix refers to human), or alternatively membrane homogenates from B16-F10 mouse melanoma cells containing endogenous murine MCR-1. In the examples that follow, all MCR-1 and MCR-4 values are for human recombinant receptors, unless otherwise noted. Assays were performed in 96 well polypropylene round-bottom plates (VWR catalog number 12777-030).
(§2) Membrane homogenates were incubated with 0.1 nM [I¹²⁵]-NDP-α-MSH (Perkin Elmer) and increasing concentrations of test peptides of the present invention in buffer containing 25 mM HEPES buffer (pH 7.5) with 100 mM NaCl, 2 mM CaCl₂, 2 mM MgCl₂, 0.3 mM 1,10-phenanthroline, and 0.2% bovine serum albumin. After incubation for 90 minutes at 37° C., the assay mixture was filtered onto GF/B Unifilter plates (Perkin-Elmer catalog number 6005177) and washed with 3 mL of ice-cold buffer per well. Filters were air dried and 35 μL of scintillation cocktail added to each well. Plates were counted in a Microbeta counter for bound radioactivity. […] Maximal specific binding (100%) was defined as the difference in radioactivity (cpm) bound to cell membranes in the absence and presence of 1 μM NDP-α-MSH. Each assay was conducted in duplicate and the actual mean values are described, with results less than 0% reported as 0%. Ki values for peptides of the present invention were determined using Graph-Pad PRISM® curve-fitting software.

Test [2] has as its target T2, recombinant human melanocortin-1 receptor (hMCR-1a) in membrane homogenates of HEK-293 cells (human, UniProt Q01726 1-317).
T2 construct: whole, on cells; Used as membrane homogenates, not intact cells; also called hMCR-la; MC-1
The test is described as follows: competitive inhibition of [I125]-NDP-alpha-MSH, hMCR-1 HEK-293 membranes. On the procedure:
as §1, §2

Test [3] concerns the target T3, human melanocortin-1 receptor (hMCR-1) expressed by the human melanoma cell line HBL (human, UniProt Q01726 1-317). The test is described as follows: cell-based or functional assay.
Test [4] deals with T3, human melanocortin-1 receptor (hMCR-1) …. The test is described as follows: cell-based or functional assay. The source holds these as a separate data set.
Test [5] has the same target. As to the kind of experiment: cell-based or functional assay. The source holds these as a separate data set.
Test [6] shares this target. As to the kind of experiment: cell-based or functional assay. This is another data set of the same source.
Test [7] shares this target. The test is described as follows: cell-based or functional assay. This is another data set of the same source.
The target is the same in test [8]. The test is described as follows: cell-based or functional assay. The source holds these as a separate data set.
For test [9] the target is unchanged. The test is described as follows: cell-based or functional assay. The source holds these as a separate data set.

Read-outs that look alike come from different tables or passages of the source. [ ]: non-standard residue; d: D form. Nle = CCCC[C@H](N)C(=O)O; Orn = NCCC[C@H](N)C(=O)O; Dab = NCC[C@H](N)C(=O)O; Sar = CNCC(=O)O

T1 sequence (P32245 whole entry): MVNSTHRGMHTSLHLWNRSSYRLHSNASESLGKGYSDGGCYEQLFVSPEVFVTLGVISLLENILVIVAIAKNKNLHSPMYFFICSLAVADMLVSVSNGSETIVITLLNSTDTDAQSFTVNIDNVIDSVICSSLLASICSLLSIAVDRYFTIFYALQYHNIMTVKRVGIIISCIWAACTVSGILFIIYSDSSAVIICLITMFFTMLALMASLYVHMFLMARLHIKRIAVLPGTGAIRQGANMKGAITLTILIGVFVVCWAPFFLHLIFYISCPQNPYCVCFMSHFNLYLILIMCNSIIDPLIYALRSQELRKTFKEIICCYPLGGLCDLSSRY
T2 sequence (Q01726 whole entry): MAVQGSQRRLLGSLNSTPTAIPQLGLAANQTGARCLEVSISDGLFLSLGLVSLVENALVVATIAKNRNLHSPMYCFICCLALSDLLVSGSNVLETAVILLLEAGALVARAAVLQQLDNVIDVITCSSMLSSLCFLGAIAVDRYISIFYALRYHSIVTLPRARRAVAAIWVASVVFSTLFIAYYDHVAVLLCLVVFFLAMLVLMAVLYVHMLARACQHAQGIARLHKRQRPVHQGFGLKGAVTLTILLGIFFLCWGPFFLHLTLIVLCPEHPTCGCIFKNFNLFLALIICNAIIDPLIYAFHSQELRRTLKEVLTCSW
T3 sequence (Q01726 whole entry): as above

B1: Ac-Nle-His-D-Phe-Arg-Ala-Trp-NH2 (peptide)
peptide: Ac-[Nle]H[dF]RAW-NH2
SMILES: CCCC[C@H](NC(C)=O)C(=O)N[C@@H](Cc1c[nH]cn1)C(=O)N[C@H](Cc1ccccc1)C(=O)N[C@@H](CCCNC(=N)N)C(=O)N[C@@H](C)C(=O)N[C@@H](Cc1c[nH]c2ccccc12)C(N)=O
notes: synthetic linear peptide
One may read the Ki as a dissociation constant, usually derived from enzyme kinetics or from competition with a known ligand. As to B1, the values for the Ki in test [1] and in [2] were 3420 nM and 35 nM, respectively. Further, the “MC-1 EC50 (average; cAMP HBL)” value in test [3] came to 1 nM.

B2: Ac-Nle-Ala-Dab-D-Phe-Arg-Ala-Trp-NH2 (peptide)
peptide: Ac-[Nle]A[Dab][dF]RAW-NH2
SMILES: CCCC[C@H](NC(C)=O)C(=O)N[C@@H](C)C(=O)N[C@@H](CCN)C(=O)N[C@H](Cc1ccccc1)C(=O)N[C@@H](CCCNC(=N)N)C(=O)N[C@@H](C)C(=O)N[C@@H](Cc1c[nH]c2ccccc12)C(N)=O
Turning to B2, the “MC-1 EC50 (average; cAMP HBL)” value in test [4] stood at 0.165 nM.

B3: Ac-Nle-Ala-His-D-Phe-Arg-Gly-Trp-NH2 (peptide)
peptide: Ac-[Nle]AH[dF]RGW-NH2
SMILES: CCCC[C@H](NC(C)=O)C(=O)N[C@@H](C)C(=O)N[C@@H](Cc1c[nH]cn1)C(=O)N[C@H](Cc1ccccc1)C(=O)N[C@@H](CCCNC(=N)N)C(=O)NCC(=O)N[C@@H](Cc1c[nH]c2ccccc12)C(N)=O
notes: synthetic linear peptide
Consider B3, for which the results for the Ki in test [1] and in test [2] were 885 nM and 0.8 nM, respectively. Further, the “MC-1 EC50 (average; cAMP HBL)” value in test [5] is 0.038 nM.

B4: Ac-Nle-Ala-Lys-D-Phe-Arg-Ala-Trp-NH2 (peptide)
peptide: Ac-[Nle]AK[dF]RAW-NH2
SMILES: CCCC[C@H](NC(C)=O)C(=O)N[C@@H](C)C(=O)N[C@@H](CCCCN)C(=O)N[C@H](Cc1ccccc1)C(=O)N[C@@H](CCCNC(=N)N)C(=O)N[C@@H](C)C(=O)N[C@@H](Cc1c[nH]c2ccccc12)C(N)=O
notes: synthetic linear peptide
In the case of B4, the Ki in [1] was found to be 10000 nM; in test [2], 4 nM. The “MC-1 EC50 (average; cAMP HBL)” value in [6] is 0.1 nM.

B5: Ac-Nle-Ala-Phe-D-Phe-Arg-Ala-Trp-NH2 (peptide)
peptide: Ac-[Nle]AF[dF]RAW-NH2
SMILES: CCCC[C@H](NC(C)=O)C(=O)N[C@@H](C)C(=O)N[C@@H](Cc1ccccc1)C(=O)N[C@H](Cc1ccccc1)C(=O)N[C@@H](CCCNC(=N)N)C(=O)N[C@@H](C)C(=O)N[C@@H](Cc1c[nH]c2ccccc12)C(N)=O
notes: synthetic linear peptide
Turning to B5, the Ki in test [1] was 1620 nM; in [2] it was 20 nM. The “MC-1 EC50 (average; cAMP HBL)” value in test [7] was 6 nM.

B6: Ac-Nle-Ala-His-D-Phe-Arg-Sar-Trp-NH2 (peptide)
peptide: Ac-[Nle]AH[dF]R[Sar]W-NH2
SMILES: CCCC[C@H](NC(C)=O)C(=O)N[C@@H](C)C(=O)N[C@@H](Cc1c[nH]cn1)C(=O)N[C@H](Cc1ccccc1)C(=O)N[C@@H](CCCNC(=N)N)C(=O)N(C)CC(=O)N[C@@H](Cc1c[nH]c2ccccc12)C(N)=O
On to B6, for which the “MC-1 EC50 (average; cAMP HBL)” value in test [8] turned out to be 0.17 nM.

B7: Ac-Nle-Ala-Orn-D-Phe-Arg-Ala-Trp-NH2 (peptide)
peptide: Ac-[Nle]A[Orn][dF]RAW-NH2
SMILES: CCCC[C@H](NC(C)=O)C(=O)N[C@@H](C)C(=O)N[C@@H](CCCN)C(=O)N[C@H](Cc1ccccc1)C(=O)N[C@@H](CCCNC(=N)N)C(=O)N[C@@H](C)C(=O)N[C@@H](Cc1c[nH]c2ccccc12)C(N)=O
As to B7, the “MC-1 EC50 (average; cAMP HBL)” value in test [9] came to 0.045 nM.
